Measurements as given in article PMC4695337, “Crystal Structure of a Eukaryotic GEN1 Resolving Enzyme Bound to DNA”.
Positions count from the first letter of the chain named.

Assays:
CtGEN1 [1] = target: T1, CtGEN1 (Chaetomium thermophilum? (printed C. …, UniProt G0RYN2 1-487)); assay: EMSA; EMSA fitted to Hill equation, protein 2.1-43 nM (monomer); binding buffer and temperature not in material. Crystals: 100 mM HEPES pH 7.5, 2 mM MgCl2, 20% PEG10000, 7 C; details: protein: recombinant; tags: C-terminal His6; four-way junction of 4 strands (b/h/r/x)
T1 sequence: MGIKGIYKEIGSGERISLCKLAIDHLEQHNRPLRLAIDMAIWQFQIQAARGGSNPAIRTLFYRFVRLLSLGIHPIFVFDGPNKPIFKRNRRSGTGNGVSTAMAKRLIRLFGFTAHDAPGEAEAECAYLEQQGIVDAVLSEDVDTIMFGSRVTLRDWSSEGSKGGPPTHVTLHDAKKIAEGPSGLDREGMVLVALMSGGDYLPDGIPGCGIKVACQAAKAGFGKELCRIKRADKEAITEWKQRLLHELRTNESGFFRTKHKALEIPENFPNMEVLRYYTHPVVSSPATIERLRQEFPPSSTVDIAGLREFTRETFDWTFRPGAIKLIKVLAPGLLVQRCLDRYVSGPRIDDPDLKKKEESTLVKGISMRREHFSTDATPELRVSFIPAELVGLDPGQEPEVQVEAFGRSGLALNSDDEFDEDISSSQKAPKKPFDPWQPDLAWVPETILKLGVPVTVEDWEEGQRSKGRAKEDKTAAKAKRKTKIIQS

CtGEN1 D141A = target: T2, CtGEN1 D141A (Chaetomium thermophilum? (printed C. …, UniProt G0RYN2 1-487, D141A)); assay: as above; details: protein: recombinant; tags: C-terminal His6; chain copies: 2; four-way junction of 4 strands (b/h/r/x)
T2 sequence: T1 sequence with D141A

CtGEN1 E122A = target: T3, CtGEN1 E122A (Chaetomium thermophilum? (printed C. …, UniProt G0RYN2 1-487, E122A)); assay: as above; details: protein: recombinant; tags: C-terminal His6; chain copies: 2; four-way junction of 4 strands (b/h/r/x)
T3 sequence: T1 sequence with E122A

CtGEN1 E120A = target: T4, CtGEN1 E120A (Chaetomium thermophilum? (printed C. …, UniProt G0RYN2 1-487, E120A)); assay: as above; details: protein: recombinant; tags: C-terminal His6; chain copies: 2; four-way junction of 4 strands (b/h/r/x)
T4 sequence: T1 sequence with E120A

CtGEN1 D38A = target: T5, CtGEN1 D38A (Chaetomium thermophilum? (printed C. …, UniProt G0RYN2 1-487, D38A)); assay: as above; details: protein: recombinant; tags: C-terminal His6; chain copies: 2; four-way junction of 4 strands (b/h/r/x)
T5 sequence: T1 sequence with D38A

CtGEN1 D143A = target: T6, CtGEN1 D143A (Chaetomium thermophilum? (printed C. …, UniProt G0RYN2 1-487, D143A)); assay: as above; details: protein: recombinant; tags: C-terminal His6; chain copies: 2; four-way junction of 4 strands (b/h/r/x)
T6 sequence: T1 sequence with D143A

CtGEN1 D79A = target: T7, CtGEN1 D79A (Chaetomium thermophilum? (printed C. …, UniProt G0RYN2 1-487, D79A)); assay: as above; details: protein: recombinant; tags: C-terminal His6; chain copies: 2; four-way junction of 4 strands (b/h/r/x)
T7 sequence: T1 sequence with D79A

CtGEN1 [2] = target: T1, CtGEN1; assay: crystal structure; Mn2+ (1 mM MnCl2 soak); EMSA fitted to Hill equation, protein 2.1-43 nM (monomer); binding buffer and temperature not in material. Crystals: 100 mM HEPES pH 7.5, 2 mM MgCl2, 20% PEG10000, 7 C; details: protein: recombinant; tags: C-terminal His6; 14 bp with 3' overhang 1 nt on r strand
CtGEN1 [3] = target: T1, CtGEN1; assay: crystal structure; Mg2+ (2 mM MgCl2); EMSA fitted to Hill equation, protein 2.1-43 nM (monomer); binding buffer and temperature not in material. Crystals: 100 mM HEPES pH 7.5, 2 mM MgCl2, 20% PEG10000, 7 C; details: protein: recombinant; tags: C-terminal His6; r strand 1-14 paired with h 17-30 (14 bp); r 16-30 paired with x 1-15 (15 bp); mismatch r15/x16

B1: four-way junction 3 (50 nt strands) (structured_DNA)
DNA 1: GGCTAAGGGATCCGTCCTAGCAAGGGGCTGCTACCGGAGGCTTACATCGG
DNA 2: CCGATGTAAGCCTCCGGTAGCAGCCTGAGCGGTGGTTGGATGTTGACTGC
DNA 3: GCAGTCAACATCCAACCACCGCTCAACTCAACTGCAGTCTAGATGGACTG
DNA 4: CAGTCCATCTAGACTGCAGTTGAGTCCTTGCTAGGACGGATCCCTTAGCC
**Q.** What does the source list for B1?
**A.** Kd (CtGEN1 [1]): 7.7 ± 0.01 nM; Kd (CtGEN1 D141A): 10 ± 0.01 nM; Kd (CtGEN1 E122A): 4.6 ± 0.04 nM; Kd (CtGEN1 E120A): 6.5 ± 0.1 nM; Kd (CtGEN1 D38A): 6.2 ± 0.05 nM; Kd (CtGEN1 D143A): 7.1 ± 0.01 nM; Kd (CtGEN1 D79A): 5.9 ± 0.05 nM

B2: R-stem duplex as modeled in 5CNQ (dsDNA)
DNA 1: TCCAACCACCGCTCA
DNA 2: GAGCGGTGGTTGGA
modifications: 5'-phosphate at cleaved 5' end of h strand product
**Q.** Does B2 bind (CtGEN1 [2])?
**A.** binds

B3: junction 3 resolution product (crystal) (structured_DNA)
DNA 1: TCCAACCACCGCTCAACTCAACTGCAGTCT
DNA 2: GAGCGGTGGTTGGA
DNA 3: AGACTGCAGTTGAGTC
modifications: 5'-phosphate at cleaved 5' end of h strand product
**Q.** Does B3 bind (CtGEN1 [3])?
**A.** binds
